Measured values published in US20230212305A1, “ANTI-ABCG2 ANTIBODIES AND USES THEREOF” (Kenjockety Biotechnology, Inc., priority 2020, published 2023).
Substitutions are numbered along the chain they refer to.

T1: ABCG2 (Homo sapiens, UniProt Q9UNQ0)
T1 construct: expressed in transfected cells
T1 sequence (Q9UNQ0 1-655): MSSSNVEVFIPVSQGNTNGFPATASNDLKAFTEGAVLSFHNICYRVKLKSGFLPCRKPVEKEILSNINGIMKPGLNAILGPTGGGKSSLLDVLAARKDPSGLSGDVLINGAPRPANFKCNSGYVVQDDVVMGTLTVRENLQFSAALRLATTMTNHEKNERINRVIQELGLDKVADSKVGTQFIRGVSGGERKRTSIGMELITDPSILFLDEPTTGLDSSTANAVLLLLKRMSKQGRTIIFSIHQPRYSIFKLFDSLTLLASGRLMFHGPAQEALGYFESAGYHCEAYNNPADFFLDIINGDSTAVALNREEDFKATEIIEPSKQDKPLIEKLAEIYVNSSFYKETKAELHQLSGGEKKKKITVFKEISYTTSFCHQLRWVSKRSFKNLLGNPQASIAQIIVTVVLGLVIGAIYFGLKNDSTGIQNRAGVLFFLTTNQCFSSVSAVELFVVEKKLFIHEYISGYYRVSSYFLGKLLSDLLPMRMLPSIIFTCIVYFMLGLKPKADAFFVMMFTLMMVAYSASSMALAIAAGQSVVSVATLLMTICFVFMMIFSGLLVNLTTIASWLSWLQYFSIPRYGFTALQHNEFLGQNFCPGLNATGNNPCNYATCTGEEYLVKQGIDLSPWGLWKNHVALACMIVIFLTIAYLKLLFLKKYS

B1: G2.333 rat: anti-ABCG2 antibody raised in rat (antibody, V domains shown)
VH: EIQLQESGPGLVKPSQSLSLTCSVTGYTITSGYDWTWLRKFPGNKMEWMGYISYSGFTNYNPSLRSRISISRDTSKNQFFLQLNSVTTEDTATYYCARTRGYNPFPYWGQGTLVTVSS
VL: DIQMTQSPSLLSASVGDRVSLSCKAGRNVNNYLAWYQQKLGKPPKLLIYNSNSLQTGIPSRFSGSGSGTDFTLTISSLQPEDVATYFCQQYNSWTTFGSGTKLEIK
B2: G2.248 mouse: anti-ABCG2 antibody raised in mouse, listed in Table 2 (antibody, V domains shown)
VH: QVQLQQPGAELVKPGASVKLSCKTSGFTFSNSYISWLKQKPRQSLEWIAWIYAGTGGTNYNQKFTGKAQLTVDTSSSTAYMQLSSLTSEDSAIYYCATYGNFLYAMDNWGQGTSVTVSS
VL: DIQMKQSPASLSASVGETVTITCRASGNIHNYLAWYQQKQGKSPQLLVYNTKTLADGVPSRFSGSGSGTQYSLKINSLQPEDFGSYYCQHFWSTPWTFGGGTKLEIK
B3: G2.636 rat: anti-ABCG2 antibody raised in rat (antibody, V domains shown)
VH: EVKLVESGGGLVQPGRSLKLSCAASGFTFSRFYMAWVRQAPTKGLEWVAHISHGGDTTYYRDSVKGRFTISRDNAKSTLFLQMDSLRSEDTATYYCTTSAAPWNYVMDGWGLGASVTVSS
VL: DIVMTQSPSLLSASVGDRVTLTCKGSQNINNFLAWYQQKLGEAPKLLIYKTNSLHTGIPSRFSGSGSGTDYTLTISSLHSEDLATYYCYQYNNGYTFGAGTKLELK
B4: G2.641 rat: anti-ABCG2 antibody raised in rat (antibody, V domains shown)
VH: B3 VH with V5E
VL: B3 VL with V3Q
B5: G2.629 rat: anti-ABCG2 antibody raised in rat (antibody, V domains shown)
VH: EVQLVESGGGLVQPGRSLKLSCAASGFIFSRFYMAWVRQAPTKGLEWVAYINTGGGTTYYRDSVKGRFTISRDNAKTTLYLQMDSLRSEDTATYYCTTLAAPWNYVMDAWGQGASVTVSSA
VL: B3 VL with I2V, I48T, A99P
B6: G2.631 rat: anti-ABCG2 antibody raised in rat (antibody, V domains shown)
VH: EVKLLESGGGLVQSGRSLKLSCAASGFIFSRFYMAWVRQAPRKGLEWVAYISNGAGSTYYRESVKGRFIISRDNAKSTLYLQMDSLRSEDTATYYCTTVAAPWNYVMDGWGQGASVTVSS
VL: B3 VL with D1N, V3Q, M4I, T22S, F32Y
B7: G2.642 rat: anti-ABCG2 antibody raised in rat (antibody, V domains shown)
VH: QIQLVQSGAELVKPGASVKLSCKTSGFTFSSNYISWLRQKPRQSLEWIAWIYSGTGGTYYNQKFTGKAQLTIDTSSNTAYMQLSSLTSEDSAIYYCARHVGLRYWYFDVWGAGTSVTVSS
VL: DIVLTQSPASLTVSLGQRATISCRASESVDSNGNSFMHWYQQKPGQSPKVLIYRASNLESGVPARFSGSGSRTDFTLTINPVEADDVATYYCQQSNEDPWTFGGGTKLEIKREF
B8: G2.255 mouse: anti-ABCG2 antibody raised in mouse, listed in Table 2 (antibody, V domains shown)
VH: EVMLVESGGALVKPGGSLKLSCAASGFTFSNNAMSWVRQTPETRLEWVATITGGGSYTYYPDSVKGRFTISRDNARNTLYLQMSSLRSEDTATYYCASPDGNYEGVLAYWGQGTLVTVSA
VL: DIQMNQSPSSLSASLGDRVTISCSASQGISNYLNWYQQKPDGTIKLLIYYTSTLHSGVPSRFSGSGSGTDYSLTISNLEPEDIATYYCQHYSSLPWTFGGGTKLEIK
B9: G2.256 mouse: anti-ABCG2 antibody raised in mouse, listed in Table 2 (antibody, V domains shown)
VH: EVQLQQSGPELVKPGASLKISCKTFGYSFTGYYMHWVKQSPEKSLEWIGKIVPSTGGTTYNQKFKAKATLTVDKSSFTAYMQLKSLTSEDSAVYYCAREKVYGYDVYYFDYWGQGTTLTVSS
VL: DIVMSQSPATLSVTPGDRVSLSCRASQSISDYLHWYQQKSHESPRLLIKYASQSISGIPSRFSGSGSGSDFTLSINSVEPEDVGVYYCQNGHSFPWTFGGGTKLEIK

Experiments:
[1] = biological target: T1, ABCG2; assay: Flow cytometry binding to 293T cells overexpressing human ABCG2 (293T_ABCG2_OX); set-up: key to Binding by FACS: binding=“+”; non-significant binding=“−”; details: for binding to 293T cells overexpressing human ABCG2: in words, FIGS. 7-11, 21
Protocol: (§1) Cell Binding Assays. Antibody binding to cells was evaluated by flow cytometry. 293T cells stably transfected to express human or cynomolgus ABCG2 (293T_ABCG2_OX) were washed once in flow cytometry buffer (PBS+2% FBS+0.02% sodium azide), resuspended at 2×10^6 cells/mL in flow cytometry buffer, and dispensed into 96-well microtiter plates at 0.1 mL/well. Recombinant antibodies were added to cells at 5 ug/mL for initial binding confirmation, or serially diluted from 100 ug/mL in flow cytometry buffer. After incubating cells on ice for 30 min, cells were washed twice with flow cytometry buffer. Bound antibody was detected with PE-labeled F(ab′)2 fragment goat anti-human IgG (Jackson ImmunoResearch) and evaluated on an Attune NxT flow cytometer. EC50 is calculated to be the concentration of antibody that gives half maximal response.

[2] = biological target: T1, ABCG2; assay type: cell-based
Protocol: 293T_ABCG2_OX cells were washed several times and aliquoted into 96-well plates as 50 μl aliquots/well at a cell density of 2×10e6 cells per ml in phenol red-free DMEM. Cells were mixed with 50 μl antibodies or the small molecule inhibitors of ABCG2:-fumitremorgin C (FTC), or its tetracyclic analogue K0143, with a final concentration of 1 μM. Cells were then incubated in the presence of 2.5 μM Mitoxantrone 1 h at 37° C. The cells were subsequently washed twice and finally resuspended in […] PBS. Mitoxantrone fluorescence was measured using excitation at 635 nm and emission at 647 nm. Protocols was measuring efflux blockade are found in Szabo E, et al., PLoS One. 2018 Jan. 17; 13(1):e0190629; Deeken J F, et al., Mol Pharmacol. 2009 November; 76(5):946-56).

[3] = system: cynomolgus ABCG2; assay: Flow cytometry binding to 293T cells overexpressing cynomolgus ABCG2; set-up: key to Cynomolgus ABCG2 binding: binding=“+”; non-significant binding=“−”; details: for binding to 293T cells overexpressing cynomolgus ABCG2: in words, FIGS. 7-11, 21
Protocol: as §1

[4] = system: A549 (ATCC, CCL-185); assay: Xenograft study with NSCLC cell line A549; assay type: in vivo
[5] = system: 293T_ABCG2_OX cells; assay type: cell-based, human; details: for Killing: cell killing by topotecan on 293T_ABCG2_OX cells, viability relative to IgG control
Protocol: Cytotoxicity Assays. The effect of antibodies on topotecan cytotoxicity was evaluated on 293T_ABCG2_OX cells, 293T cells stably transfected to express ABCG2. Cells were plated in 0.05 mL of Assay Media (DMEM+10% FBS) at 5000 cells/well in white, flat bottom 96-well tissue culture plates. Topotecan was prepared at 2× final assay concentration by serial dilution from 200 uM in assay media containing test antibodies or control antibodies at 100 ug/mL (2× final concentration), or Fumitremorgin C, a small molecule ABCG2 inhibitor at 20 uM (2× final concentration). An equivalent volume (0.05 mL) of the topotecan/antibody mixture was added to the 293T_ABCG2_OX cells in 96-well plates. The plates were then incubated at 37° C., in 5% CO2. After 72-96 hr plates were equilibrated to room temperature and cell viability assessed using Promega® CellTiter-Glo® Luminescent Cell Viability Assay according to the manufacturer's recommended protocol. Luminescence was measured on a Molecular Devices® FlexStation® 3 Multi-Mode Microplate Reader and data analyzed using GraphPad Prism 8.0 software. Half maximal inhibitory concentration (1050) is the concentration of drug (topotecan or other chemotherapy cytotoxic agent) where the response (cell growth) is reduced by 50%.

[6] = system: Panc1/T300 cells; assay: Xenograft study with topotecan-resistant Panc1/T300 cells; assay type: in vivo
Protocol: PANC1 (ATCC, CRL-1469) is a pancreatic ductal epithelial carcinoma cell line. The topotectan-resistant Panc1/T300 cells were developed by continuously incubating PANC1 cells in the culture medium containing increasing concentration of topotecan of 25, 50, 100, 200 and 300 nM. […] The arrows indicate the dosing schedule.

Sequence of cynomolgus ABCG2 (as listed by the source): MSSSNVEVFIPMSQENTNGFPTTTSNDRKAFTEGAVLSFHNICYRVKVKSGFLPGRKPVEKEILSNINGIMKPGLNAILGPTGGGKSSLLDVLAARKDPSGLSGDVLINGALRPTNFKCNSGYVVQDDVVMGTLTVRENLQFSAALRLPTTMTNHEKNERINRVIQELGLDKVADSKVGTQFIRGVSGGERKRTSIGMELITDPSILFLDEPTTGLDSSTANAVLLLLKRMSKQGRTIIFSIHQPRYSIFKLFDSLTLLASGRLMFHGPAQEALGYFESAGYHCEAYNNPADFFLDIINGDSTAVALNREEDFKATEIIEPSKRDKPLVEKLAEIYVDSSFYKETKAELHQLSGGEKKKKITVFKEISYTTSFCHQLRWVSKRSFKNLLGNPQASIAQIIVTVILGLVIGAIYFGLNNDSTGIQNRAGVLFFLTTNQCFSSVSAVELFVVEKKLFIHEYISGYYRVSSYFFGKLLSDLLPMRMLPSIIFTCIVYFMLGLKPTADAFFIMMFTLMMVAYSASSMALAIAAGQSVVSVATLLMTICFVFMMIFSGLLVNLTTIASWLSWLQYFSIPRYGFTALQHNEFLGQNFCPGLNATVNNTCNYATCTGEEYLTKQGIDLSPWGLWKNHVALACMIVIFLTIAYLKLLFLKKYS

Molecule	Binding by FACS ([1]; 293T_ABCG2_OX cells)	Kd ([1]; 293T_ABCG2_OX cells, read-out: Affinity for human ABCG2) [nM]	Block Efflux [2]	efflux inhibition activity [2]	Cynomolgus ABCG2 binding [3]	efficacy in combination with CPT11 (Irinotecan) ([4]; compared with 5D3/CPT11 combination)	Killing [5]	binding to 293T cells overexpressing human ABCG2 [1]	binding to 293T cells overexpressing cynomolgus ABCG2 [3]	tumor volume, in combination with topotecan [6]	tumor volume, in combination with topotecan [4]	effect on topotecan cytotoxicity on 293T_ABCG2_OX cells [5]
B1	+	33	+	strong efflux inhibition activity	+	significantly exceeds the efficacy of the 5D3/CPT11 combination	+ (viability ≥30% and <50% of IgG control)					
B2	+		−		−		− (≥75% of IgG control)					
B3	+		++				+++ (viability <10% of IgG control)	strong binding	strong binding	efficacious in reducing tumor volume		
B4	+		++		+		++ (viability ≥10% and <30% of IgG control)					
B5	+		+				+ (viability ≥30% and <50% of IgG control)			efficacious in reducing tumor volume		
B6	+		+	strong efflux inhibition activity			++ (viability ≥10% and <30% of IgG control)	strong binding	strong binding		efficacious in reducing tumor volume	significantly increased the cytotoxic activity of topotecan
B7	+		−		−		− (≥75% of IgG control)					
B8	+		−		−		− (≥75% of IgG control)					
B9	+		−		−		− (≥75% of IgG control)					
